From publication PMC11467380
Like-named read-outs stand apart in the source and are kept apart here.

Experiments:
[1] = target: U1 snRNP ΔU1-C, biotinylated on SmF and Cy5-labelled on the U1 snRNA (CoSMoS form) (human) (UniProt P08621); assay: colocalization single molecule spectroscopy
[2] = target: U1 snRNP ΔU1-C, biotinylated on SmF and Cy5-labelled on the U1 snRNA (CoSMoS form) (human) (UniProt P08621); assay: colocalization single molecule spectroscopy; remark: listed apart in the source
[3] = target: minimal U1 snRNP with U1-C (SPR) (human, UniProt P08621;P62316;P62318;P14678;P62306;P62304;P62308;P09234 …, internal_change); assay: SPR
[4] = target: T1, minimal U1 snRNP without U1-C (CoSMoS);U1-C zinc finger (U1-C_61) (human;human, UniProt P08621;P62316;P62318;P14678;P62306;P62304;P62308;P09234 …, internal_change|); assay: single-molecule CoSMoS
[5] = target: T1, minimal U1 snRNP without U1-C …; assay: single-molecule CoSMoS; remark: listed apart in the source

Chain of U1-C_61 (zinc finger region of U1-C) (P09234 1-61): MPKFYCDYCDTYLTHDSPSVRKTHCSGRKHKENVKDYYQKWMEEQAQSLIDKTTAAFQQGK

Molecule: U1-C_61 (zinc finger region of U1-C) (from UniProt P09234 1-61) (domain or fragment)
- EC50 [1]: 1.3 nM
- EC50 [2]: 1.8 nM

Molecule: CAGGUAAGUAU (ssRNA) [11bp]
- Kd [3]: 0.203 nM

Molecule: CAGAGUAAGUAU (ssRNA) [11bp-1A]
- Kd [3]: 2.7 nM

Molecule: ACACAGGUAAGUUAACA (ssRNA) [9bp]
- Kd [4]: ~0.12 nM

Molecule: ACACAGAGUAAGUUAACA (ssRNA) [9bp-1A]
- Kd [5]: 1.2 nM
